Patent US20260258115A1 (MAPP BIOPHARMACEUTICAL, published 2026)

B1: ADI-36677 (antibody, V domains shown)
VH: QVQLVQSGGGLVQPGGSLRLSCAASGFTFSSYEMNWVRQAPGKGLEWISYISSSGDTKYYADSVKGRFTVSRDNAKYSLYLQMDSLRAEDTAVYYCASLYDSRGYYWVFDYWGQGTLVTVSS
VL: DIVMTQSPSSLSASVGDRVTITCQASQDISTYLNWYQHKPGKAPNLLIYDASNLEPGVPSRFSGSGSGTDFTFTISSLQPEDIATYYCLQHDNLPPTFGQGTKVDIK
B2: ADI-36676 (antibody, V domains shown)
VH: EVQLLESGGGVVQPGRSLRLSCAASGFSFRNYDMHWVRQAPGKGLEWVAIISYDGSNKYADSVKGRFTISRDTSKNTLYLQMNSLRVEDTAVYYCARADSSGYYKGSEYFQHWGQGTLVTVSS
VL: SYELTQLPSVSVAPGQTARITCGGNNIGTKSVQWYQHKPGQAPVLVVYDDSDRPSDIPERFSGSNSGNTATLTISRVEAGDEADYYCQVWDSSSDHYVFGTGTKLTVL
notes: also called Ab 832; Antibody Number 832
B3: ADI-36676 (antibody, V domains shown)
VH: EVQLLESGGGVVQPGRSLRLSCAASGFSFRNYDMHWVRQAPGKGLEWVAIISYDGSNKYADSVKGRFTISRDTSKNTLYLQMNSLRVEDTAVYYCARADSSGYYKGSEYFQHWGQGTLVTVSS
VL: SYELTQLPSVSVAPGQTARITCGGNNIGTKSVQWYQHKPGQAPVLVVYDDSDRPSDIPERFSGSNSGNTATLTISRVEAGDEADYYCQVWDSSSDHYVFGTGTKLTVL
notes: as for B2
B4: ADI-41609 (antibody, V domains shown)
VH: QVQLVESGAEVKKPGASVKVSCKASGYSFTSYYMHWVRQAPGQGLEWMGVISTNGGTASYSQNFRGRVTLTRDTSTSTAYMELSSLTSEDTAVYYCVREGYCNGGSCSYFDSWGQGTLVTVSS
VL: QSVLTQPPSVSGAPGQRVSISCTGSSSNIGAGYDVHWYQQLPGTAPKVLIYGNNYRPSGVPDRFSGSKSGTSASLAITGLQTEDEADYYCQSYDSRLSVVFGGGTKLTVL
B5: ADI-36672 (antibody, V domains shown)
VH: EVQLVESGGGLVKPGGSLRLSCAASGFAFNNYYMNWVRQAPGKGLEWVSSISSASTYTDYADSVKGRFTISRDNAKNSLYLHLNSLRAEDTAVYYCARDYYGSGNYYNPKPLDVWGQGTTVTVSS
VL: QPVLTQPPSVSGAPGQRVTISCTGSSSNIGAGYDVHWYRQFPGTAPELLIYGNTNRPSGVPDRFSGSKSGTSASLAITGLQAEDEADYYCQSYDSSLKGVFGGGTKLTVL
B6: ADI-41601 (antibody, V domains shown)
VH: EVQLLESGGGLVKPGGSLRLSCAGSGFRFSDYYMTWIRQAPGKGLEWVSYISSSSTYTYYTDSVKGRFTVSRDNAKNSLYLQMNTLRAEDTAIYYCAISNRYDSRTFYYDYWGQGTLVTVSS
VL: QSVLTQPPSVSGAPGQRVIISCTGSSSNIGAGYDVHWYQQFPGTAPKLLIYGNNNRPSGVPERFSGSKSGTSASLAITGLQADDEADYYCQSYDSLSEVVFGGGTKVTVL
notes: also called Ab 875; Antibody Number 875
B7: ADI-41809 (antibody, V domains shown)
VH: QVTLKESGGGLVQPGGSLRLSCAASGFTFSNYAMSWVRQAPGKGLEWVSAISHSDSRTFYADSVKGRFTISRDNSKNTLFLQMDSLRAHDTAVYYCANVDPSSVTYYGYYYGMDVWGQGTTVTVSS
VL: QSVLTQPPSASGTPGQRVTISCSGSSSNIGKNFVYWYQQFPGTAPKRLIYRNNQRPSGVPDRFSGSRSGTSASLAISGLRSEDEADYYCATWDDSLSGWVFGGGTKLTVL
B8: ADI-41590 (antibody, V domains shown)
VH: EVQLVQSGGGLVKPGGSLRLSCTASGFTFSDHYMSWIRQAPGKGLEWISYISSTSSFTNYANSVKGRFTISRDNAKNSLYLQMNSLRAEDTAVYYCARDRSILYSGYSLDYWGQGTLVTVSS
VL: DIQMTQSPSSLSASVGDRVTISCRASQSILNYLNWYQHKPGKAPKLLIYAASSLQSGVPSRFSGSGSGTDFTLTISGLQPEDFATYYCQQSDSTRTFGQGTKVEIK
B9: ADI-41191 (antibody, V domains shown)
VH: QVQLVQSGAEVKRPGASVKVSCKASGYIFSHYGISWVRQAPGQGLEWMAWISAYNGNTNYAQKLQGRVTVTTDTSTSTAYMELRSLRSDDTAVYYCAREPPSLSAAATLDYWGQGTLVTVSS
VL: EIVMTQSPLSLPVTLGQPASISCRSNQSLVYSDGNIYLSWFQQRPGQSPRRLIYKVSNRDSGVPDRFSGSGSGTDFTLKISRVEAEDVAVYYCMQVTHWPHEFGQGTKLEIK
B10: ADI-41203 (antibody, V domains shown)
VH: QVQLVQSGAEVRKPGESLKISCKASGYRFTNYWIGWVRQMPGKGLEWMGVIYPGDSDTRYSPSFQGQVTMSADKSTNTAYLQWSSLKASDTAIYYCVSLYSDYDYGALDYWGQGTLVTVSS
VL: EIVMTQSPATLSVSPGERATLSCRASENVGRNLAWYQQKPGQAPRLLIYGASIRATGILARFSGSGSGTEYTLTISSLQSEDFAVYYCQQYHDWPSFTFGPGTKVDIK
B11: ADI-36669 (antibody, V domains shown)
VH: EVQLVQSGAEVKKPGASVRVYCKASGYTFTTYYIHWVRQAPGQGLEWMGMINPSGGTTSYAQKFQGRLTMTGDTSTSTVYMELNYLRSEDTAVYYCTRDFIYFYGSGDGFDYWGQGTLVTVSS
VL: EIVMTQSPSAMSASVGDRVTITCRASQGISNYLAWFQQKPGKVPKRLIYAASSLQSGVPSRFSGSGSGTEFTLTITSLQPEDFATYYCLQHNSYPFTFGPGTKVEIK
B12: ADI-41578 (antibody, V domains shown)
VH: EVQLVESGGGVVQPGRSLRLSCAASGFTLSSYVMDWVRQAPGKGLEWVAVISYDGSSKYYADSVKGRFTVSRDNSNNAMYLQMNSLRAEDTAVYYCARDPYYDILTGYSYFDYWGHGTTVTVSS
VL: SYVLTQPPSVSGAPRQTATITCGGNNIGSKSVNWYQQKPGQAPVLVVYDDSARPSGIPERFSGSNSGNTATLTVSSVEAGDEADYFCQVWDTSSAPYPWVFGGGTKLTVL
notes: also called Ab 852; Antibody Number 852
B13: ADI-36673 (antibody, V domains shown)
VH: QVQLVQSGGGLVKPGGSLRLSCAASGFTFRDFYMSWIRQAPGKGLEWVSNISPSSTYTNYADSVKGRFTISRDNAKNSLYLQMNSLRAEDTAVYYCVKSEGYSSGWYDYWGQGTLVTVSS
VL: QPVLTQPPSVSGAPGQRVTISCTGSSSNIGAGYDVNWYHQLPGAAPKLLIYTNSNRPSGVPDRFSGSKSGTSASLAITGLQAEDEADYYCQSYDSSLSGYVFGTGTKLTVL
notes: also called Ab 830; Antibody Number 830
B14: ADI-41591 (antibody, V domains shown)
VH: QVTLKESGGGLVKPGGSLRLSCAASGFTFSDYYMSWIRQAPGKGLEWVSYISSSSSYTNYADSVKGRFTISRDNAKNSLYLQMNSLRAEDTAVYYCAREAVAAAGTDYFDYWGQGTLVTVSS
VL: QSVLTQPPSVSGAPGQRVTISCTGSSSNIGAGYDVHWYQQPPRTAPKLLIYGNSNRPSGVPDRFSGSKSGTSASLAITGLQAEDEADYYCQSYDSSLSGYVFGTGTKLTVL
notes: also called Ab 865; Antibody Number 865
B15: ADI-41567 (antibody, V domains shown)
VH: QVQLQQWGAGLLKPSETLSLTCEVYGGSFSGYYWTWFRQPPGEGLEWIGEINHSGGTNYNPSLKSRVTMSVDASINQFSLQLSSVTAADTSVYYCARGHYYNTNDFYGLFDYWGQGTLVTVSS
VL: DIRLTQSPSFLSASVGDRVTITCRASQGISTYLAWYQQKPGKAPKLLLYAASTLHSGVPSRFSGSGSGTEFTLTISSLQPEDFATYYCQQLNRYPPSTFGPGTKLEIK
notes: also called Ab 845; Antibody Number 845
B16: ADI-36678 (antibody, V domains shown)
VH: EVQLVQSGGGLVQPGGSLRVSCAASGLTVSTNYMSWVRQLPGKGLEWVSVIYSGGNTYYADSVKGRFTISRDNSKNIVYLEMNSLRIEDTAVYYCARAHLNNWFVSVTDTKDYYFDYWGQGTLVTVSS
VL: SYELTQPPSVSVLPGQTASITCSGDKLGDKYASWYQQKPGQSPILVVFQDDKRPSGIPERFSGSNSGNTATLTISGTQATDEADYYCQACDRNTGVFGTGTKLTVL

Assays:
[1] = biological target: RSV postfusion F (postF), F ΔFP trimer, subtype A (Respiratory Syncytial Virus, subtype A, UniProt P03420 26-513); assay: BLI, IgG (Table 9A)
[2] = biological target: RSV F on RSV subtype A virus (RSV-A2) (Respiratory Syncytial Virus, subtype A, …, UniProt P03420 26-574); assay: cell-based or functional assay
[3] = biological target: RSV prefusion F (preF), DS-Cav1 stabilized trimer, subtype A (Respiratory Syncytial Virus, subtype A, UniProt P03420 26-513); assay: BLI, apparent IgG KD (Table 9A)
RSV F on RSV-A2 virus = RSV F on RSV-A2 virus (Respiratory syncytial virus, RSV-A2, UniProt P03420 26-574); assay: cell-based or functional assay
[4] = biological target: RSV postfusion F (postF), F ΔFP (Respiratory syncytial virus, UniProt P03420 26-513); assay: BLI, IgG on anti-human IgG sensor
[5] = biological target: RSV prefusion F (preF), DS-Cav1 (Respiratory syncytial virus, UniProt P03420 26-513); assay: BLI, IgG on anti-human IgG sensor, 100 nM antigen

Binder	binding result [1]	Neutralization - RSV A2 IC50 (pM) [2] [pM]	neut IC50 (ug/ml) subtype A (wright) [2] [µg/mL]	Kd [3] [nM]	Neutralization IC50 (RSV subtype A) (RSV F on RSV-A2 virus) [µg/mL]	binding result [4]	Kd [5] [nM]
B1	no binding	144	0.019	0.54	–	–	–
B2	no binding	130	0.006	0.28	–	–	–
B3	–	–	–	–	0.006	no binding (tested: 100 nM antigen)	0.282
B4	–	–	–	–	> 25	no binding (tested: 100 nM antigen)	29.1
B5	no binding	207	0.018	0.7	–	–	–
B6	–	–	–	–	> 25	no binding (tested: 100 nM antigen)	0.503
B7	–	–	–	–	> 25	no binding (tested: 100 nM antigen)	2.65
B8	–	–	–	–	> 25	no binding (tested: 100 nM antigen)	3.02
B9	no binding	154	0.071	0.5	–	–	–
B10	no binding	23.9	0.006	0.4	–	–	–
B11	no binding	111	0.025	1.1	–	–	–
B12	–	–	–	–	0.0398	no binding (tested: 100 nM antigen)	0.249
B13	–	–	–	–	0.02	no binding (tested: 100 nM antigen)	0.62
B14	–	–	–	–	> 25	no binding (tested: 100 nM antigen)	4.26
B15	–	–	–	–	0.0505	no binding (tested: 100 nM antigen)	0.717
B16	–	–	–	–	0.006	no binding (tested: 100 nM antigen)	0.716
